Assay results from patent US20120276091A1 (HANWHA CHEMICAL, published 2012).

Key:
[1] = molecular target: T1, recombinant human VCAM-1 domain 1-7/Fc chimera (R&D, 862-VC) (human, UniProt P19320 25-698); assay: BIACORE (SPR), recombinant VCAM1/Fc immobilised on sensor chip CM5, antibody as analyte, 1:1 binding model
T1 construct: domain: D1-D7; Bought; also called VD7; hVCAM-Fc-chimera; not shown: Fc of the bought chimera
T1 sequence (looked up): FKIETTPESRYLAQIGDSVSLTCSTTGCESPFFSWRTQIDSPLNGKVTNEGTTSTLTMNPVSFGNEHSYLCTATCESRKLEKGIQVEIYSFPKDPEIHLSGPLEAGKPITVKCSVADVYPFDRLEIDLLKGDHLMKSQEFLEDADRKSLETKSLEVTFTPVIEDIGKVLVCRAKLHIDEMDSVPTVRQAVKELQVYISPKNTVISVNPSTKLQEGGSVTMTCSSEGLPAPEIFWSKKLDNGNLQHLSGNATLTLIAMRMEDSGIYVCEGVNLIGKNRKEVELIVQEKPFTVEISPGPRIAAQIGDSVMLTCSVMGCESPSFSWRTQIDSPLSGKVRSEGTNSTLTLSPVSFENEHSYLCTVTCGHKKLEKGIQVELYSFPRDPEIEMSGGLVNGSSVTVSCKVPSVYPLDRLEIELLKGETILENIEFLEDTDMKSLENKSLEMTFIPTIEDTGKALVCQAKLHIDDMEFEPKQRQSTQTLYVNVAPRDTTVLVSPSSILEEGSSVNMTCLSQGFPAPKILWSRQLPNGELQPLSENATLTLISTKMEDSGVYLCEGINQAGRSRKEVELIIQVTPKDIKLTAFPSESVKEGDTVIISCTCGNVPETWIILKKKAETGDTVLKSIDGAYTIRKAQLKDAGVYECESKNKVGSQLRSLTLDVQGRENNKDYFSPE
Method: (§1) Journal of Bioscience and Bioengineering Vol. 100, No. 3, 311-317, 2005).
(§2) For ligand immobilization to the sensor chip CM5, the chip should be first activated with a mixture of N-hydroxysuccinimide (NHS) and […] (Amine Coupling Kit, BR-1000-50) to prepare a NHS-ester-activated chip surface being highly reactive to amino group. 1 mg/ml of ligand to be immobilized was diluted in 97 μl of each sodium acetate solution (vary within the pH range from 4.0 to 5.5) at a dilution ratio of 3/100, and then applied at a flow rate of 10 μl/min for about 3 min (as a negative control, the ligand was diluted using a running buffer, HBS-EP buffer (BIACORE AB, Sweden) in the same manner). In order to immobilize the ligand at a predetermined value target RU (resonance unit), serial injection was carried out automatically, until reaching target RU. […] The final RU was determined by an immobilization report which provides a difference in RU values before and after injection of ethanolamine.
(§3) A flow cell 2-flow cell 1 mode provided by BIACORE instrument was employed in this experiment in order to remove non-specific binding. […] Through this procedure, an association/dissociation curve of the corresponding antigen and antibody was obtained, and an association/dissociation constant KD was calculated by BIAevaluation program (BIACORE AB, Sweden), as shown in FIG. 3.

[2] = molecular target: T1, recombinant human VCAM-1 domain 1-7/Fc …; assay: BIACORE (SPR), VCAM1/Fc immobilised on CM5 chip, antibody as analyte, 1:1 binding model
Method: as §1, §2, §3

B1: 7HT antibody (VCAM-1 antibody, VCAM-1 Ab) (antibody, V domains shown)
VH: EVQLVQSGGDLVKPGESLRLSCAASGFTFNDAWMTWVRQPPGKGLEWVGRIKSTTDGGTTNYAAPVEGRFTISRDDSKNTLYLEMNSLRAEDTAVYYCARIPLFNHDSGGYHGAFDIWGQGTMVTVSS
VL: DIQMTQSPSSLAVSLGERATINCKSSQSVLYSSNNKNYLAWYQQKPGQPPKLLIYWASTRESGVPDRFSGSGSGTDFTLTISSLQPEDFASYYCQESYSAPYTFGQGTKVEIKR
notes: Human antibody, full IgG; also called VCAM-1 Ab (7HT); 7HT Ab
koff [1]: 0.00176 s⁻¹ | kon [1]: 279000 M⁻¹ s⁻¹ | Kd [2]: ~6.3 nM
